# In patent publication US20230324413A1, “RENIN-BASED ANALYSIS OF HEPCIDIN” (TAMPERE UNIVERSITY FOUNDATION SR, priority 2020, published 2023):
# Molecular target: T1, human renin (Homo sapiens, UniProt P00797)
# T1 construct: purchased Biovision, Inc. San Francisco, CA
# T1 sequence (P00797 67-406): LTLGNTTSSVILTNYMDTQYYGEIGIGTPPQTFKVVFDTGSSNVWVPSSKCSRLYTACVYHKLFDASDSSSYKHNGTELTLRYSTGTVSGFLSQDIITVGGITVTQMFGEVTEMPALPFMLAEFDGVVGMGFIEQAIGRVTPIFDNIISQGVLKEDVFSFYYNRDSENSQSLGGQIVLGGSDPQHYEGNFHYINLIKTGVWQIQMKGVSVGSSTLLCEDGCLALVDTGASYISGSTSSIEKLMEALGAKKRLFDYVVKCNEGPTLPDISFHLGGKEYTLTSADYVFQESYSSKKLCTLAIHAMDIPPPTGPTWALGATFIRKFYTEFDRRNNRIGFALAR
# Assay: Renin inhibition screening kit, kinetic fluorescence measurement of renin enzyme activity
# Assay type: biochemical
# Settings: for Inhibition of renin activity (in words): 10 nM, 100 nM and 500 nM, FIG. 5; for Mean inhibitory effect on renin activity: 37° C, 60 min kinetic fluorescence
# Description: Human hepcidin-25/LEAP-1 (hep-25, with disulfide bonds between Cys7-Cys23, Cys10-Cys13, […], and Cys14-Cys22, purity assessed by HPLC≥98.0%) was purchased from Peptides International (Peptides International Inc, Louisville, KY). N-terminal part of hepcidin, DTHFPICIF (hep-9; SEQ ID NO: 6) and DTHFP (hep-5; SEQ ID NO: 7), were synthetized by Proteogenix (Schiltigheim, France). Renin inhibition screening kit was purchased from Biovision (Biovision, Inc. San Francisco, CA). ForteBio's 96 well black plates were used in the measurements.
# Hep-25, hep-9, and hep-5 were used in final sample concentrations of 10 nM, 100 nM and 500 nM to measure inhibition of renin enzyme activity. The concentrations used represent normal levels of hepcidin in human circulation. Fluorescence measurement was performed using Perkin Elmer UV/VIS Envision multimode plate reader. Excitation and emission wavelengths were 328 and 552 nm, respectively. Fluorescence was recorded every 60 s for 60 min at 37° C. Rate of renin inhibition was calculated following the manufacture's instructions.
Inhibition of renin activity (in words),Mean inhibitory effect on renin activity (peptide concentration 10 nM) [%],Mean inhibitory effect on renin activity (peptide concentration 100 nM) [%],Mean inhibitory effect on renin activity (peptide concentration 500 nM) [%],Substance
inhibited renin activity,50.1,50.0,58.6,"DTHFP [hepcidin-5, N-terminal part of hepcidin, 5 amino acids, synthetized by Proteogenix]"
–,20.4,29.2,38.3,"hepcidin-25: mature bioactive 25 amino acid hepcidin peptide, SEQ ID NO: 1; purchased from Peptides International"
inhibited renin activity,41.25,41.15,42.65,DTHFPICIF [hepcidin-9]
